Data: patent publication US20230143604A1, “QW DOSING OF GIP RECEPTOR AGONIST PEPTIDE COMPOUNDS AND USES THEREOF” (TAKEDA PHARMACEUTICAL COMPANY LIMITED, priority 2020, published 2023)
Starred links: 1 amine or outer side, 2 acyl side, 3 side chain; linkers in the order of their positions; H or OH if unused. Non-standard residues stand in square brackets, D forms with d. Groups on a side chain read outwards from the residue. No end group written: not given here. *: point of attachment. C18 diacid = O=C(O)CCCCCCCCCCCCCCCCC(=O)*; C17 diacid = O=C(O)CCCCCCCCCCCCCCCC(=O)*; γGlu = O=C(O)[C@H](CCC(=O)[*:2])N[*:1]; NMeY = CN[C@@H](Cc1ccc(O)cc1)C(=O)O; Stearoyl = CCCCCCCCCCCCCCCCCC(=O)*; AEEA = NCCOCCOCC(=O)O; E∗ = not defined here; K∗ = not defined here; Aib = CC(C)(N)C(=O)O

T1: full-length human GIPR with an N-terminal FLAG tag, overexpressed on HEK-293T cells (human, UniProt P48546 22-466)
T1 sequence (looked up): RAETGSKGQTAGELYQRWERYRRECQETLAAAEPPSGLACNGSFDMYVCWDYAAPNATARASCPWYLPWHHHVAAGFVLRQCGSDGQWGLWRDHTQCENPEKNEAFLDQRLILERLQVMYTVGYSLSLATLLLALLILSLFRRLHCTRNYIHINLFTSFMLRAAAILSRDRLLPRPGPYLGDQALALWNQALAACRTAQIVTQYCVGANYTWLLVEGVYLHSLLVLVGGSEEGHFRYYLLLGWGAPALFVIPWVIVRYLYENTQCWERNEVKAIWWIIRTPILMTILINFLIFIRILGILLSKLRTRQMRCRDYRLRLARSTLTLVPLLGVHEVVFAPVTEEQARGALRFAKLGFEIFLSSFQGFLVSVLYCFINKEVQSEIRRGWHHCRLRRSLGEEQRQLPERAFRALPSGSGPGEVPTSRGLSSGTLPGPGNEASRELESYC

B1: Compound No. 183 (peptide)
peptide: Me-Y[Aib]EGTFISDYSIALDR[E∗]HQ[K∗]NFVNWLLAQK([AEEA-AEEA-γGlu-C18 diacid])PSSGAPPPS-NH2
modifications: not fully specified (residue 1); reading uncertain; also: E* at 17 and K* at 20 marked, meaning not given here
B2: Compound No. 171 (peptide)
peptide: H-Y[Aib]EGTFISDYSI[Aib]LDKAK([AEEA-AEEA-γGlu-C18 diacid])QADFVNWLLAQRG-OH
SMILES: CC[C@H](C)[C@H](NC(=O)[C@H](Cc1ccccc1)NC(=O)[C@@H](NC(=O)CNC(=O)[C@H](CCC(=O)O)NC(=O)C(C)(C)NC(=O)[C@@H](N)Cc1ccc(O)cc1)[C@@H](C)O)C(=O)N[C@@H](CO)C(=O)N[C@@H](CC(=O)O)C(=O)N[C@@H](Cc1ccc(O)cc1)C(=O)N[C@@H](CO)C(=O)N[C@H](C(=O)NC(C)(C)C(=O)N[C@@H](CC(C)C)C(=O)N[C@@H](CC(=O)O)C(=O)N[C@@H](CCCCN)C(=O)N[C@@H](C)C(=O)N[C@@H](CCCCNC(=O)COCCOCCNC(=O)COCCOCCNC(=O)CC[C@H](NC(=O)CCCCCCCCCCCCCCCCC(=O)O)C(=O)O)C(=O)N[C@@H](CCC(N)=O)C(=O)N[C@@H](C)C(=O)N[C@@H](CC(=O)O)C(=O)N[C@@H](Cc1ccccc1)C(=O)N[C@H](C(=O)N[C@@H](CC(N)=O)C(=O)N[C@@H](Cc1c[nH]c2ccccc12)C(=O)N[C@@H](CC(C)C)C(=O)N[C@@H](CC(C)C)C(=O)N[C@@H](C)C(=O)N[C@@H](CCC(N)=O)C(=O)N[C@@H](CCCNC(=N)N)C(=O)NCC(=O)O)C(C)C)[C@@H](C)CC
B3: Compound No. 182 (peptide)
peptide: Me-Y[Aib]EGTFISDYSIALDR[Aib]HQ[E∗]NF[K∗]NWLLAQK([AEEA-AEEA-γGlu-C18 diacid])PSSGAPPPS-NH2
modifications: not fully specified (residue 1); reading uncertain; also: E* at 20 and K* at 23 marked, meaning not given here
B4: Compound No. 185 (peptide)
peptide: YXEGTFISDYSIALDRXHQXNFVNELLKQXPSSGAPPPS
modifications: N-terminal Me (Me-Tyr 1); Aib at 2, 17, 20; E* at 25 and K* at 28 (mark * as printed, not explained); Km at 30 = Lys(2OEGgE-C18DA); C-terminus NH2

What was measured:
[1] = target: full-length human GLP-1R with an N-terminal FLAG tag, overexpressed on HEK-293T cells (human, UniProt P43220 24-463); assay: cell-based or functional assay
[2] = target: T1, full-length human GIPR with an …; assay: cell-based or functional assay

Binder	Human GLP1R cAMP EC50, HEK293T [1] [nM]	Human GIPR cAMP EC50, HEK293T [2] [nM]
YXEGTFISDYSIAXDRIAQRNFVEWLLAQSPSSGAPPPS (N-terminal Me (Me-Tyr 1); Aib at 2; Km at 14 = Lys(G5-C18DA); C-terminus OH) [Compound No. 179]	2.88	0.0008
[NMeY][Aib]EGTFISDYSIAK([AEEA-AEEA-γGlu-γGlu-C17 diacid])DR[Aib]AQ[Aib]NFVNWLLAQS-OH [Compound No. 192]	178	0.0002
[NMeY][Aib]EGTFISDYSI[Aib]LDR[Aib]AQ[Aib]K([G5-γGlu-γGlu-C18 diacid])FVNWLLAQRG-OH [Compound No. 210]	10.7	0.0003
B1	162	0.0007
Me-Y[Aib]EGTFISDYSIALDRAAQQK([AEEA-AEEA-γGlu-γGlu-C18 diacid])FVNWLLAQSPG-OH [Compound No. 178]	186	0.0006
Y[Aib]EGTFISDYSIAMDKK([AEEA-AEEA-γGlu-C18 diacid])HQQDFVNWLLAQKGKKNDWKHNITQ-OH [Compound No. 188]	132	0.0019
Me-Y[Aib]EGTFISDYSIALDKIAQ[Aib]K([AEEA-AEEA-γGlu-γGlu-C18 diacid])FVNWLLAQRG-OH [Compound No. 175]	58.9	0.0007
[NMeY][Aib]EGTFISDYSI[Aib]LDR[Aib]AA[Aib]K([AEEA-AEEA-γGlu-γGlu-C18 diacid])FVNWLLAQRG-OH [Compound No. 212]	42.7	0.0003
[NMeY][Aib]EGTFISDYSIALDR[Aib]AQ[Aib]K([AEEA-AEEA-γGlu-γGlu-Stearoyl])FVNWLLAQKG-OH [Compound No. 203]	4.17	0.0013
YXEGTFISDYSIAXDRIAQRNFVEWLLAQSPG (N-terminal Me (Me-Tyr 1); Aib at 2; Km at 14 = Lys(G5-C18DA); C-terminus OH) [Compound No. 180]	5.75	0.0009
[NMeY][Aib]EGTFISDYSI[Aib]LDR[Aib]AQ[Aib]K([AEEA-γGlu-γGlu-C18 diacid])FVNWLLAQRG-OH [Compound No. 207]	36.3	0.0004
Y[Aib]EGTFISDYSIAK([AEEA-AEEA-γGlu-C18 diacid])DKIHQQDFVNWLLAQKGKKNDWKHNITQ-OH [Compound No. 187]	562	0.0032
Me-Y[Aib]EGTFISDYSIALDKAAQ[Aib]K([AEEA-AEEA-γGlu-γGlu-C18 diacid])FVEWLLAQRG-OH [Compound No. 174]	47.9	0.0004
[NMeY][Aib]EGTFISDYSIALDR[Aib]HQ[Aib]NFVNWK([AEEA-AEEA-γGlu-C18 diacid])LAQR-NH2 [Compound No. 186]	1000	0.0003
Me-Y[Aib]EGTFISDYSIALDKAAQ[Aib]K([AEEA-AEEA-γGlu-γGlu-C18 diacid])FVNWLLAQRG-OH [Compound No. 176]	40.7	0.0003
[NMeY][Aib]EGTFISDYSIALDRIHQQNFVNWLLAQK([AEEA-AEEA-γGlu-C18 diacid])PSSGAPPPS-NH2 [Compound No. 190]	97.7	0.0005
[NMeY][Aib]EGTFISDYSI[Aib]LDR[Aib]AQ[Aib]K([AEEA-AEEA-γGlu-γGlu-C18 diacid])FVNWLLAQRG-NH2 [Compound No. 204]	6.61	0.0003
B2	83.2	0.0006
[NMeY][Aib]EGTFISDYSIALDR[Aib]AQ[Aib]K([AEEA-AEEA-γGlu-γGlu-C17 diacid])FVNWLLAQKG-OH [Compound No. 200]	77.6	0.0006
[NMeY][Aib]EGTFISDYSI[Aib]LDR[Aib]HQ[Aib]K([AEEA-AEEA-γGlu-γGlu-C18 diacid])FVNWLLAQRG-OH [Compound No. 201]	61.7	0.0009
[NMeY][Aib]EGTFISDYSI[Aib]LDR[Aib]AQ[Aib]K([AEEA-AEEA-γGlu-γGlu-Stearoyl])FVNWLLAQRG-OH [Compound No. 202]	2.51	0.0042
[NMeY]GEGTFISDYSI[Aib]LDR[Aib]AQ[Aib]K([AEEA-AEEA-γGlu-γGlu-C18 diacid])FVNWLLAQRG-OH [Compound No. 205]	33.1	0.0008
B3	214	0.0525
B4	1000	0.001
[NMeY][Aib]EGTFISDYSIALDR[Aib]HQQNFVNWLLAQK([AEEA-AEEA-γGlu-C18 diacid]) [Compound No. 191]	97.7	0.0032
Me-Y[Aib]EGTFISDYSIALDRIAQQK([AEEA-AEEA-γGlu-γGlu-C18 diacid])FVNWLLAQSPSSGAPPPS-OH [Compound No. 177]	100	0.0003
[NMeY][Aib]EGTFISDYSI[Aib]LDR[Aib]AQ[Aib]K([AEEA-AEEA-γGlu-C18 diacid])FVNWLLAQRG-OH [Compound No. 208]	9.33	0.0003
Me-Y[Aib]EGTFISDYSIALDKIAQ[Aib]K([AEEA-AEEA-γGlu-γGlu-C18 diacid])FVEWLLAQRG-OH [Compound No. 173]	105	0.0003
H-Y[Aib]EGTFISDYSIALDRAAQ[Aib]K([AEEA-AEEA-γGlu-γGlu-C18 diacid])FVEWLLAQRG-OH [Compound No. 206]	26.3	0.0004
